Measured values from the supplement of paper PMC9170038.

Test system: MS2 coat protein
Assay: apparent KD of MS2 coat protein; designed switch direction (-1 OFF switch, 1 ON switch): 1; higher = weaker reporter binding
In short: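 Apparent KD, taken as the median over clusters for each design, was obtained by curve-fitting normalised cluster fluorescence. Designed RNA switches had been transcribed on Illumina chips by stalled E. coli RNA polymerase and titrated with SNAP-549-labelled MS2 coat protein, doubling from 0.7 or 1.5 nM to 3 µM.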

[1] = input ligand: microRNA oligo, concentration not stated
[2] = Eterna round: R95, input ligand: FMN 200 uM
[3] = Eterna round: R95, input ligand: microRNA oligo, concentration not stated
[4] = Eterna round: R95, input ligand: none

Sequence | apparent KD of MS2 coat protein (input ligand: FMN 200 uM) [µM] | apparent KD of MS2 coat protein [1] [µM] | apparent KD of MS2 coat protein (input ligand: none) [µM] | apparent KD of MS2 coat protein [2] [µM] | apparent KD of MS2 coat protein [3] [µM] | apparent KD of MS2 coat protein [4] [µM]
AUUGCUAGCACAGGAUAUCAUGCGAAAAUUGCGUGAGAAGGGUGGACUCUGUCAUUCACGGAGGACAUGAGGAUCACCCAUGUC [SameState NG1 #80] (Eterna round: R96, puzzle: Same State NG 1) | 0.193 | 0.0319 | 0.0623 | – | – | –
AUUGCUUACGCAGGAUAUGAUGCGAAAAUUGCGUCAGAAGGGUGAAGUAACUCAUUGCAACAGGACAUGAGGAUCACCCAUGUC [SameState NG1 #89] (Eterna round: R96, puzzle: Same State NG 1) | 0.105 | 0.25 | 0.681 | – | – | –
AUUGGGUAACGAGGAUAUCGUUUUUGUUUUCUUCGAGAAGGCGUUAUAGUUUAUUUCUAUUGUUACAUGAGGAUCACCCAUGUU [JR_SSNG1_Sub054] (Eterna round: R96, puzzle: Same State NG 1) | 0.0152 | 0.0165 | 0.0241 | – | – | –
AUUUAACAAGCUUUUUGCUCGUCUUAUAAACAUGAGGAUCACCCAUGUAAUAGCGUGAGAGUAAAUUUAUAAAUAAU [JMF 88] (puzzle: Sensor for hsa-mir-208a) | – | – | – | 0.0157 | 0.0425 | 0.0147
AUUUCUAGCAUAGGAUAUCAUGCGAAAAUUGCGUGAGAAGGGUGGACGCUGUCAUUCACGGAAGACAUGAGGAUCACCCAUGUC [SameState NG1 #75] (Eterna round: R96, puzzle: Same State NG 1) | 0.0766 | 0.0676 | 0.0872 | – | – | –
AUUUUUAAUGCAGGAUAUGAUUAACAUGAGGAUCACCCAUGUGGUGUUGUGAGUAAGGAGAGUGAUCAGAAGGGCAUUUCUUUU [JMF's solution 82] (Eterna round: R96, puzzle: Same State NG 2) | 0.593 | 0.337 | 0.54 | – | – | –
CAGAGCCCAUGGGCCUGACAUGAGGAUCACCCAUGUGGCUUUGAGGAUAUAAGCGGAAACAGCGCUUAGAAGGCGAAGCCUAAC [Rearisve] (Eterna round: R96, puzzle: Same State NG 3) | 0.157 | 0.0141 | 0.0419 | – | – | –
CAGCGCUGUCGAGAGGAUAUGCGGUGAUGGACAUGAGGAUCACCCAUGUUAGCGACAGCAUCACGGCAGAAGGCUCUAUCGCUGC [Soteed Omei mod 29] (puzzle: Same State 2) | – | – | – | 0.0242 | 0.0395 | 0.0489
CAGCUCGUGUGAGGAUAUGCCGCCGUUUCGGCUGCAGAAGGUGCUACGUUACAUGAGGAUCACCCAUGUCUCUGUUGUUUCGUC [salish99_SSNG1_r04_962] (Eterna round: R96, puzzle: Same State NG 1) | 0.0286 | 0.0191 | 0.0318 | – | – | –
CAGUGCUGUUGAGAGGAUAUGCGGCGACGGACAUGAGGAUCACCCAUGUUAGCGACAGCGUUGCGGCAGAAGGCUCUGCCCGCUG [Soteed Omei mod 50] (puzzle: Same State 2) | – | – | – | – | 0.0153 | –
CCAUAACAGUGAGGAUAUCGUUGCGAUAAGUGACGAGAAGGCAUUCAUGUGAAAUAAACAUACAUGAGGAUCACCCAUGUUGUA [Omei SS(NG)1 B] (Eterna round: R96, puzzle: Same State NG 1) | 0.0182 | 0.0171 | 0.0206 | – | – | –
CCGGUUAAUGGAGGAUAUGGAGCCUUAUUGGCUCCAGAAGGCUAAACAUGAGGAUCACCCAUGUUACCGGCGGUCAAUAGACCG [Eli NG1ss - 61] (Eterna round: R96, puzzle: Same State NG 1) | 0.0115 | 0.018 | 0.023 | – | – | –
CCGUAGAUGGGACAGGAUAUGACUGUCGUCACAUGAGGAUCACCCAUGUCCCGGCAAUGCCACCGUUAGAAGGGUCCCGUCUCGG [Tiquiser] (puzzle: Same State 2) | – | – | – | – | 0.0122 | –
CGACUAAAGUCACAGGAUAUACGCCGUACUACAUGAGGAUCACCCAUGUUCGGGACAGUCGCGGUGUAGAAGGGUGUGGGUCAAC [Errabeed] (puzzle: Same State 2) | – | – | – | 0.0176 | 0.0312 | 0.0389
CGCAACGGCUGAGGAUAUGUCAACACGGGACGGGCAGAAGGUAGCAACCACCCACAUGAGGAUCACCCAUGUAUCCAAAUUCAC [Eternabot solution 38] (Eterna round: R96, puzzle: Same State NG 1) | 0.0489 | 0.0415 | 0.0423 | – | – | –
CGCCAGAGAGCAGGAUAUGGGCCACAGCCUAAGGGCUGUGAACUCACAUGAGGAUCACCCAUGUCCCAGAAGGGCUCCUAGCUA [Erzabe] (Eterna round: R96, puzzle: Same State NG 2) | 0.203 | 0.701 | 1.92 | – | – | –

Sequence | apparent KD of MS2 coat protein (input ligand: FMN 200 uM) [µM] | apparent KD of MS2 coat protein [1] [µM] | apparent KD of MS2 coat protein (input ligand: none) [µM] | apparent KD of MS2 coat protein [2] [µM] | apparent KD of MS2 coat protein [3] [µM] | apparent KD of MS2 coat protein [4] [µM]
CGGCGCUGUCGAGAGGAUAUGCGGUGAUGGACAUGAGGAUCACCCAUGUUAGCGAUAGCAUCACGGUAGAAGGCUCCACAGCCGU [Soteed Omei mod 13] (puzzle: Same State 2) | – | – | – | – | 0.023 | –
CGGCUCCGUGGAGGAUAUGGGCCUGCCCGGGAUACCGGGCCUAACACAUGAGGAUCACCCAUGUCCCAGAAGGCCGCUGGAGCC [Cebeladi] (Eterna round: R96, puzzle: Same State NG 2) | 0.0127 | 0.0262 | 0.0523 | – | – | –
CGUAGGUAGCUGGAGGAUAUCCGAGUGGUAACAUGAGGAUCACCCAUGUGAUGUGAGGAACAUGAGGAGAAGGCUAGCUGCCUGC [JL-ss2-3.12 JL mod] (puzzle: Same State 2) | – | – | – | 0.0231 | 0.0375 | 0.0382
CGUAGGUGGCUGGAGGAUAUUCGAGUGGUAACAUGAGGAUCACCCAUGUGUCGCGCGGUACAUGAGGAGAAGGCUGGCGGCCUGC (puzzle: Same State 2) | – | – | – | 0.0197 | 0.0694 | 0.178
CGUCGUUUGAUAGGAUAUCGCUUUACAUGAGGAUCACCCAUGUUUCCCACGCUGGUUUUUCUUUCCGAGAAGGAUUCUGAUGUU [salish99_SSNG02_r04_029] (Eterna round: R96, puzzle: Same State NG 2) | 0.0446 | 0.0314 | 0.0406 | – | – | –
CGUCGUUUGAUAGGAUAUCGCUUUACAUGAGGAUCACCCGGGUUUACCACGCUGGUUUUUCUUUCCGAGAAGGAUUCUGAUGUU [salish99_SSNG02_r04_028] (Eterna round: R96, puzzle: Same State NG 2) | 0.117 | 0.0207 | 0.029 | – | – | –
CGUUCUUACUCGGUACGGUGAGUAGAGGAACAUGAGGAUCACCCAUGUAUGAGCUUUUUGCUCGUGAUUAACAGUAG [JR_SHM208a_Sub014] (puzzle: Sensor for hsa-mir-208a) | – | – | – | 0.058 | 0.0633 | 0.105
CUAACAACAAGUUGCAGUGUUCGUCUUUAACAUGAGGAUCACCCAUGUAAUAGCCCGGUAGAAGCGCUCGGGCCACC [Anaesrain] (puzzle: Sensor for hsa-mir-208a) | – | – | – | 0.0328 | 0.0381 | 0.0363
CUACGCGCCGCAGGAUAUGCCGACCCGUGUUGAGCAGAAGGGCGCAACAUGAGGAUCACCCAUGUUGAAAGAGCGCAAAAUUAA [Zaesre] (Eterna round: R96, puzzle: Same State NG 1) | 0.0111 | 0.0125 | 0.016 | – | – | –
CUCAAACAUGAGGAUCACCCAUGUGUUGUCAUGGGAGGAUAUCUAAGUUCGUUGUAUUCGGGAGAAGGCCUAUGUC [× ×•×ª×• ×ž×“×™× ×” × ×—×ª-10] (puzzle: Same State 1) | – | – | – | – | 0.199 | –
CUCAACAACACAGGAUAUCCAGGGAAAAGAACUGGAGAAGGGUGACCAACAUGAGGAUCACCCAUGUGAUAGCUAGGCUGUCUG [Lararariso] (Eterna round: R96, puzzle: Same State NG 1) | 0.024 | 0.191 | 1.3 | – | – | –
CUCAACAACACAGGAUAUCCAGGUAAAAGACCUGGAGAAGGGUGACCAACAUGAGGAUCACCCAUGUGACAGCCAGGCUGUCUG [Isbitiqu] (Eterna round: R96, puzzle: Same State NG 1) | 0.0878 | 0.00441 | 0.371 | – | – | –
CUGAAAUGUCAAGGAUAUCACGUCGAUUAGACGUGAGAAGGUGAUCUGCACAUGAGGAUCACCCAUGUGUUACAUGGAAAUCAG [Brourd's SSNG1/1-A2 mod 14] (Eterna round: R96, puzzle: Same State NG 1) | 0.312 | 0.581 | 0.964 | – | – | –
CUGAGCAAUCGAGGAUAUCACGUCGAUUAGACGUGAGAAGGCGAUCAUAACAUGAGGAUCACCCAUGUAUUACAUGAAGCUCAG [SSNG1/4-A2] (Eterna round: R96, puzzle: Same State NG 1) | 0.0153 | 0.0129 | 0.0203 | – | – | –
CUGAGCGAUCAAGGAUAUCACGUCGUUUAGACGUGAGAAGGUGAUCCAUACAUGAGGAUCACCCAUGUAUAACAUGAAGCUCAG [SSNG1/8-A3] (Eterna round: R96, puzzle: Same State NG 1) | 0.646 | 0.057 | 1.54 | – | – | –
CUUGAUACACAUGAGGAUCACCCAUGUAUCAAGCUUUUUGCUCGUGUUAUUAUUUCCUUUAUUAGGAAUAUUAGGAA [rhiju-sequester-tail] (puzzle: Sensor for hsa-mir-208a version 2) | – | – | – | 0.0249 | 0.0144 | 0.0237
